From patent publication US20240018262A1 (INNOBATION BIO, published 2024)

B1: 7B9 antibody (antibody, V domains shown)
VH: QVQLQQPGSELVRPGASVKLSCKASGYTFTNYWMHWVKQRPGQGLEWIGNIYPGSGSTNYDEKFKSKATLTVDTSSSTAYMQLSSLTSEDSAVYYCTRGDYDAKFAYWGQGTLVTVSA
VL: DIVMTQSPAIMSASPGEKVTMTCRASSSVSSSYLHWYQQKSGASPKLWIYSTSKLASGVPARFSGSGSGTSYSLTISSVEAEDAATYYCQQYSGYPLITFGAGTKVELK
notes: Mouse hybridoma monoclonal antibody, detected with anti-mouse IgG
B2: 8B2 antibody (antibody, V domains shown)
VH: QVQLQQPGAELVKPGASVKMSCKASGYTFTSYNMHWVKQTPGQGLEWIGAIYPGNGYTSYNQKFKGKATLTADKSSSTAYMQLSSLTSEDSAVYYCARGGGPFAYWGQGTLVTVSA
VL: DIVMTQSHKFMSTSVGDRVSITCKASQDVGTAVAWYQQKPGQSPKLLIYWPSTRHTGVPDRFTGSGSGTDFTLTISNVQSEDLADYFCQQYSSYPFTFGSGTKLEIK
notes: as for B1
B3: 1A8 antibody (antibody, V domains shown)
VH: QVQLQQPGSELVRPGASVKLSCKASGYTFTSYWMHWVKQRHGQGLEWIGNIYPGSGSTNYDEKFKSKGTLTVDTSSRTAYMHLSSLTSEDSAVYYCTRGHYDYAMDYWGQGTSVTVSS
VL: DIVMTQSPSSLSASLGDTITITCHASQNINVWLSWYQQKPGNIPKLLIYKTSNLHTGVPSRFSGSGSGTGFTLTISSLQPEDIATYYCQQGQSYPWTFGGGTKLEIK
notes: as for B1
B4: 10E9 antibody (antibody, V domains shown)
VH: EVQLEESGTVLARPGASVKMSCKASGYTFTSYWMHWIKQRPGQGLEWIGAIYPGNSDTSYNQKFKGKAKLTAVTSTSTAYMELSSLTNEDSAVYYCTRGEYDYVLAYWGQGTLVTVSA
VL: DIVMTQSPATLSVTPGDSVSLSCRASQSISNNLHWYQQKSHESPRLLIKFASQSISGIPSRFSGSGSGTDFTLSINSVETEDFGMYFCQQSNSWPHMYTFGGGTKLEIK
notes: Mouse hybridoma monoclonal antibody, detected with anti-mouse IgG; Used as hybridoma culture supernatant in the ELISA
B5: 7C6 antibody (antibody, V domains shown)
VH: QVQLQQPGAELVKPGASVKLSCKASGYTFTTYYMYWVKQRPGQGLEWIGEINPSNGGTNFNEKFKSKATLTVDKSSSTAYMQLSSLTSEDSAVYYCTTFAYWGQGTLVTVSA
VL: DIVMTQSPSSLSASLGGKVTITCKASQDINKYIVWYQHKPGKGPRLLIHYTSILQPGIPSRFSGSGSGRDYSFSISNLEPEDIATYYCLQYDNLWTFGGGTKLEIK
notes: as for B1
B6: 5E11 antibody (antibody, V domains shown)
VH: QVQLKQSGAELMKPGASVKISCKATGYTFSRYWIEWVKQRPGHGLEWIGEILPGSGSTSYNEKFKGKATFTADTSSNTAYMQLSSLTSEDSAVYYCARSARATYYFDYWGQGTTLTVSS
VL: DIQMTQTTSSLSASLGDRVTISCWASQDISNYLNWYQQKPDGTVKLLIYYTSTLHSGVPSRFSGSGSGTDYSLTISNLEQEDIATYFCQQGNALPYTFGGGTKLEIK
notes: as for B1

The binders below were run against T1, GPC3 protein (Acrobiosystems, cat #GP3-H52H4) (UniProt P51654 25-559) (assay: ELISA, GPC3 protein coated at 100 ng/well, 100 µl hybridoma culture, anti-mIgG-HRP).
T1 construct: Bought protein coated on the ELISA plate at 100 ng/well; also called Glypican 3; GPC3 antigen
T1 sequence (P51654 25-559 limits assumed): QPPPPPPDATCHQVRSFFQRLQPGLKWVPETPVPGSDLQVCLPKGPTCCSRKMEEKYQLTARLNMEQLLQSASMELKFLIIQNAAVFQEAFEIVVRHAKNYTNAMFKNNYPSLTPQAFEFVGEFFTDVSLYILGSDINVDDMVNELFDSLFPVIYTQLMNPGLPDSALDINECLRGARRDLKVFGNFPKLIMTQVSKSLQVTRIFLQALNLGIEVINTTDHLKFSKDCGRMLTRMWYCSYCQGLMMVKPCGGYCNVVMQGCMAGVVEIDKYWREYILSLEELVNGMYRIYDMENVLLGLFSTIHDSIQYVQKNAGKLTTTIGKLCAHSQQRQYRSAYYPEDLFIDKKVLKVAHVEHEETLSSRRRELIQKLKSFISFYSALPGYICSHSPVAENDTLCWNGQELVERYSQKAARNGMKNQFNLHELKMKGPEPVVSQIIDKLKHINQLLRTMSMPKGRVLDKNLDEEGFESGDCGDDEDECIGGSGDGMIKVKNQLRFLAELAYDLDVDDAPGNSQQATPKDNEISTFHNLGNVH
Experimental: First, in order to encode the GPC3 peptide, GPC3 protein (Acrobiosystems, cat #GP3-H52H4) was dispensed into a 96-well plate at an amount of […] and reacted overnight at 4° C. Then, after treatment with 1 X PBST containing 3% BSA, it was blocked for 30 minutes at room temperature.
100 μl of hybridoma cell culture of each clone producing 10E9, 8B2, 7C6, 7B9, 5E11 or 1A8 antibody was treated in each well, reacted at room temperature for 2 hours, and then washed three times with 1 X PBST. The secondary antibody ([…], 1:10,000) was treated and reacted at room temperature for 30 minutes, washed three times with 1 X PBST, and then treated with TMB for color development and reacted at room temperature for 5 minutes. Finally, the reaction was terminated by treatment with a stop solution of 1N H2SO 4, and then the absorbance was measured at 450 nm.

Q: B1 was tested. Which OD450 measurement did it give?
A: 2.54 OD450

Q: Which OD450 measurement does the source give for B2 here?
A: 1.01 OD450

Q: How did the OD450 measurement turn out when B3 was run?
A: 2.65 OD450

Q: B4 was tested. Which OD450 measurement did it give?
A: 2.32 OD450

Q: Which OD450 measurement does the source give for B5 here?
A: 2.88 OD450

Q: B6 was tested. Which OD450 measurement did it give?
A: 0.942 OD450

What follows are binders tested against T2, GPC3 expressed on hepatoma cell line HepG2 (human, UniProt P51654 25-554) (assay: flow cytometry on HepG2 cells, 1 µg antibody, PE anti-mouse IgG secondary; median fluorescence).
T2 construct: whole, on cells; also called GPC3-expressing tumor cells (HepG2); cells expressing GPC3
T2 sequence (P51654 25-554 limits assumed): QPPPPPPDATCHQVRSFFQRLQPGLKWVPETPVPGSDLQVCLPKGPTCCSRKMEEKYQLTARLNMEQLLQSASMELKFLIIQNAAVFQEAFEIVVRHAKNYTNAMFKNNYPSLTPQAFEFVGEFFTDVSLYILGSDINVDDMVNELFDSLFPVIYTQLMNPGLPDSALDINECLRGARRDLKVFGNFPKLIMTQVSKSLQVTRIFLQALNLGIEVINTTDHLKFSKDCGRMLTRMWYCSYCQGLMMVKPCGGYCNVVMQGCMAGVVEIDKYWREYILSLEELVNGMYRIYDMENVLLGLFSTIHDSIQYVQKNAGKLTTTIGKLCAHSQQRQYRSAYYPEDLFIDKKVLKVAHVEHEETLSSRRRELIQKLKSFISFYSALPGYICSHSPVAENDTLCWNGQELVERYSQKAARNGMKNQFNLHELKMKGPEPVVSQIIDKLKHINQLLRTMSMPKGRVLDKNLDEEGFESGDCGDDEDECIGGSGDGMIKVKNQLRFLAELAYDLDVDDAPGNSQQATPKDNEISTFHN
Experimental: (§1) First, hepatoma cell line HepG2 expressing GPC3 was reacted with 1 μg of each of 10E9, 8B2, 7C6, 7B9, 5E11, and 1A8 antibodies for 30 minutes, and then, after staining the surface with a secondary antibody, it was measured by flow cytometry.
(§2) GPC3 antibody (Sino biology Glypican3 APC cat #100393-R024-A, 10 u.1) was used as a positive control, and PE-conjugated anti-mouse IgG antibody (PE-conjugated goat anti-mouse IgG; Biolegend Inc., cat #405307, USA, 5 μl) was used as a secondary antibody.

Q: Which Median does the source give for B1 here?
A: 22000

Q: B2 was tested. Which Median did it give?
A: 31400

Q: B3 was tested. Which Median did it give?
A: 29000

Q: How did the Median turn out when B4 was run?
A: 25200

Q: B5 was tested. Which Median did it give?
A: 61800

Q: How did the Median turn out when B6 was run?
A: 40200

These binders were tested against T2, GPC3 expressed on hepatoma cell line … (assay: flow cytometry on HepG2 cells, 1 µg antibody, PE anti-mouse IgG secondary; mean fluorescence).
Experimental: as §1, §2

Q: How did the Mean turn out when B1 was run?
A: 27300

Q: How did the Mean turn out when B2 was run?
A: 40000

Q: How did the Mean turn out when B3 was run?
A: 36600

Q: For B4, which Mean is on record?
A: 33000

Q: For B5, which Mean is on record?
A: 81400

Q: Which Mean does the source give for B6 here?
A: 52600
